Data taken from article PMC11543927, “Subtleties in Clathrin heavy chain binding boxes provide selectivity among adaptor proteins of budding yeast” (Nature Communications, 2024).

T1: ScChc-NTD (Saccharomyces cerevisiae, UniProt P22137)
T1 construct: N-terminal domain (ScChc-NTD, 1–369) was cloned in a pETM-30 vector; His-GST (TEV site); made in house; host or cells: E. coli BL21 (DE3)
T1 sequence (P22137 1-369): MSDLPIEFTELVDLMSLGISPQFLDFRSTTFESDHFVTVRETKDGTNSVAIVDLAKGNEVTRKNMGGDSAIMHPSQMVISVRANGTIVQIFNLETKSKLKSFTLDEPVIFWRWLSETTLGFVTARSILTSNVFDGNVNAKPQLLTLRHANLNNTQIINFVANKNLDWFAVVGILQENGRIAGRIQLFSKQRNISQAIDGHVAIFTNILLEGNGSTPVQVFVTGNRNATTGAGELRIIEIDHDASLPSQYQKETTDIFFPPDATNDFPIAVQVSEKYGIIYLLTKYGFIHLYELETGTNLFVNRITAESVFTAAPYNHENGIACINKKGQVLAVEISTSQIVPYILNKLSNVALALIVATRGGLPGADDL

B1: Yap1801 CBM peptide (NLNLIDM) (peptide)
peptide: NLNLIDM
notes: source: synthetic peptide, bought: NovoProLabs
B2: Ent5.1 CBM peptide (IPDLIDLDD) (peptide)
peptide: IPDLIDLDD
notes: also called Ent5.1 LIDL motif; LIDL peptide; source: synthetic peptide, bought: NovoProLabs
B3: Apl2.1 CBM peptide (SQDLLDLF) (peptide)
peptide: SQDLLDLF
notes: also called LLDLF peptide; source: synthetic peptide, bought: NovoProLabs
B4: Ent2 endogenously tagged with mNeonGreen (Ent2-mNeonGreen) (natural protein, UniProt Q05785 1-613, looked up)
chain: MSKQFVRSAKNMMKGYSSTQVLVRDATANDSRTPSIDTLDDLAQRSYDSVDFFEIMDMLDKRLNDKGKYWRHVAKSLTVLDYLVRFGSENCVLWCRENFYVIKTLREFRHENESGFDEGQIIRVKAKELVSLLNDEERLREERSMNTRNRRANRAARPRPRRQRTRSNPHDSSPSYQDDLEKALEESRITAQEDEQRRRELAQYDDEDPDFQAALQLSKEEEELKQLQELQRLQKQQQSLSQFQAPLQQQQPQQQPAYYDIFGNPISQDEYLQYQYQQDQEQAMAQQRWLDQQQEQQQLAEQQYFQQQQQAAAAASALQQQQTAANMQQQQQQPADFQQPLPTGSNNPFSMDNLERQKQEQQHAQLQRQQEEARQQQEQLKLQQLQRQQQEEAQLHQKRQEEAQLQQQQAQLLQQQAQFQQQQPLKQTRTGNQSISDKYSDLNTLLATGTGIDTFGNTGEARIPAQHTKTGTFINSQGTGYKQVTNEPKNNPFLSNQYTGLPSTNIVPTQTGYGFGNQPQSPPTNSPQQNPTGISYSQPQQQQQPQQQPQYMQNFQQQQPQYAQNFQQQPQYTQNYQQQPQYIQPHQQQQQQQQQQQQQQGYTPDQGVSLIDL
notes: epsin Ent2, Saccharomyces cerevisiae, endogenous locus tagged with mNeonGreen; also called Ent2-WT-mNeonGreen; Ent2p; source: endogenously tagged, S. cerevisiae MK100, in living cells
B5: Saccharomyces cerevisiae clathrin heavy chain N-terminal domain (ScChc-NTD, 1-369) (domain or fragment, UniProt P22137 1-369, looked up)
chain: T1 sequence (P22137 1-369)
notes: Clathrin heavy chain N-terminal domain, Saccharomyces cerevisiae, residues 1-369; pETM-30 vector with a His-GST tag and a TEV cleavage site; also called WT NTD; source: E. coli BL21 (DE3), purified (Ni-NTA, TEV cleavage, reverse Ni-NTA, SEC)
B6: Yap1802 CBM peptide (NPNLIDI) (peptide)
peptide: NPNLIDI
notes: as for B1

What was measured:
ScChc-NTD = target: T1, ScChc-NTD; experiment: Native MS titration of Ent5.1, 1.75 µM protein in 200 mM NH4AcO pH 9.0; format: binding; conditions: global non-linear square fitting of the five measured fractions, four independent sites with the same affinity; read-out: microscopic KD
Experimental: ScChc-NTD stocks were doubly buffer-exchanged into a 200 mM NH4AcO, pH 9.0 buffered solution by two subsequent runs on P6 biospins (BioRad); the protein concentration was determined photometrically (ε280 nm = 26,930 M^−1cm^−1) and the protein was diluted into 20 µl aliquots. Final samples contained 1.75 µM protein. Samples for competition experiments were prepared similarly for constant (20 µM) Ent1 and varying (0, 5, 10, 15, 20, 25, 30 and 50 µM) Ent2 concentrations and vice versa. Mass measurements. Samples were placed into gold-coated capillaries and after ionization by nano-electrospraying mass-measured in a QE-UHMR orbitrap mass spectrometer (Thermo Fisher Scientific) as follows: 1. establishment of a (“wet”) spray using a capillary voltage of 1.10-1.15 kV but with the syringe locked as to guarantee a relatively high backing pressure. 2. […] By doing so, success in the sense of as least as possible unspecific clusters could be easily monitored by spectrum appearance and distinct downward steps of the total ion current (TIC). […]
The processed output of the native MS interaction data consists of the relative fractions of CHC bound to different numbers of peptides. In this case, we detected CHC bound to up to four peptides. […]
To average the measured fractions related to similar free ligand concentrations, we used log-spaced intervals with base 1.1 starting at 0.011 μM. […]

[1] = target: B5; experiment: nanoDSF thermal shift; ScChc-NTD 8 µM incubated with eleven peptide concentrations (1:1 dilutions) for 15 min, heated 20-95 °C at 1 °C/min, SEC buffer (50 mM Tris pH 9, 150 mM NaCl, 0.5 mM TCEP); apparent KD from the Tm shift model, one to one binding assumed, global average over all boxes; conditions: both partners purified
[2] = target: B5; experiment: native MS; ScChc-NTD 1.75 µM in 200 mM NH4AcO pH 9.0, Ent5.1 peptide up to 100 µM; conditions: both partners purified
[3] = target: T2, Clathrin heavy chain fused to mScarlet (Chc-mScarlet), wild type (Saccharomyces cerevisiae, UniProt P22137 1-1653); experiment: FRET or BRET; acceptor photobleaching FRET in living yeast cells at endocytic patches stalled with Latrunculin A, donor mNeonGreen on Ent1/Ent2, acceptor mScarlet on Chc, 21 °C; trimmed mean FRET efficiency; conditions: partners not purified
T2 construct: Clathrin heavy chain, Saccharomyces cerevisiae, the ORF of CHC1 fused in the 3' with mScarlet; also called Chc1-mScarlet; ScCHC-mScarlet; not shown: mScarlet, C-terminal, kept

[4] = target: T3, Chc-mScarlet Clathrin and Arrestin box mutant (Cla+Arr) (Saccharomyces cerevisiae, UniProt P22137 1-1653, K63E | I87D | Q89A | K98E | Q195A | I197T | K251E); experiment: as above; conditions: partners not purified
T3 construct: Clathrin heavy chain, Saccharomyces cerevisiae, the ORF of CHC1 fused in the 3' with mScarlet, Clathrin and Arrestin box mutant; source: S. cerevisiae MK100, mutated plasmid pRS315-5'UTR CHC-mScarlet, endogenous CHC1 knocked out, in living cells; not shown: mScarlet, C-terminal, kept

[5] = target: T4, Chc-mScarlet Arrestin box mutant (Q195A, I197T, K251E) (Saccharomyces cerevisiae, UniProt P22137 1-1653, Q195A | I197T | K251E); experiment: as above; conditions: partners not purified
T4 construct: Clathrin heavy chain, Saccharomyces cerevisiae, the ORF of CHC1 fused in the 3' with mScarlet, Arrestin box mutant; also called Arr mutant; source: S. cerevisiae MK100, mutated plasmid pRS315-5'UTR CHC-mScarlet, endogenous CHC1 knocked out, in living cells; not shown: mScarlet, C-terminal, kept

[6] = target: the molecule itself; experiment: crystal structure; sitting drop; NTD incubated with excess peptide (between 23 and 40 fold) for 15 min at room temperature (21 °C) before setting up plates

Q: `CC[C@H](C)[C@H](N)C(=O)N1CCC[C@H]1C(=O)N[C@@H](CC(=O)O)C(=O)N[C@@H](CC(C)C)C(=O)N[C@H](C(=O)N[C@@H](CC(=O)O)C(=O)N[C@@H](CC(C)C)C(=O)N[C@@H](CC(=O)O)C(=O)N[C@@H](CC(=O)O)C(=O)O)[C@@H](C)CC` (single isomer, unassigned) [Ent5.1] was tested. Which Kd (ScChc-NTD) did it give?
A: The Kd was 39.1 µM.

Q: B1 was tested. Which Kd [1] did it give?
A: Its Kd is roughly 598 µM.

Q: How did the “stoichiometry N” value [2] turn out when B2 was run?
A: The value was 3.

Q: What about the Kd [1] of the same molecule?
A: Its Kd is roughly 34 µM.

Q: For B3, which Kd [1] is on record?
A: Its Kd is roughly 245 µM.

Q: B4 was tested. Which FRET efficiency [3] did it give?
A: Its FRET efficiency is 9.02%.

Q: What about the FRET efficiency [4] of the same molecule?
A: The FRET efficiency was 6.1%.

Q: And the FRET efficiency [5]?
A: The FRET efficiency was 6.7%.

Q: Does B5 bind [6]?
A: Result: binds

Q: How did the Kd [1] turn out when B6 was run?
A: The Kd was roughly 311 µM.
